This passage reports Kd results from article PMC9860126, “Mechanistic insights into the nickel-dependent allosteric response of the Helicobacter pylori NikR transcription factor”.

Among the targets are HpNikR I127A (Helicobacter pylori G27, UniProt A1YSQ9 1-148, I127A); HpNikR K64A (Helicobacter pylori G27, UniProt A1YSQ9 1-148, K64A); HpNikR GGS (Helicobacter pylori G27, UniProt A1YSQ9 1-148, P59G;N60G;D61S).
Common to all, as to assay: fluorescence anisotropy; Ni(II)-bound; FA: 5 nM DNA, 20 mM Tris pH 7.6, 100 mM NaCl, 3 mM MgSO4, temperature not stated (Ni loading 1.2 eq NiSO4 per monomer at RT). EMSA: 20 mM Tris pH 7.5, 100 mM KCl, 3 mM MgCl2, 0.1% IGEPAL, 5% glycerol, 0.1 mg/ml herring sperm DNA, RT; gel with 800 uM NiSO4 at 4 C
Holding throughout (conditions): protein: recombinant; tags: none stated; chain copies: 4; label: fluorescein on internal thymine (T14 of strand 1); blunt
For orientation: Fluorescence polarisation rises when a labelled molecule tumbles more slowly, as on binding a larger partner.

B1: ureA promoter 32 bp (FA) (dsDNA)
DNA 1: ATATAACACTAATTCATTTTAAATAATAATTA
DNA 2: TAATTATTATTTAAAATGAATTAGTGTTATAT
With B1, the Kd (in general, the free concentration of one partner at which half of the binding sites on the other are occupied at equilibrium, for simple one-to-one binding) in the series with HpNikR I127A worked out at 8.7 ± 1.3 nM; with HpNikR K64A it was 22 ± 2.2 nM; in the series with HpNikR GGS it was 4.6 ± 1.2 nM.
